Assay results from patent US20200239573A1 (CRESCENDO BIOLOGICS, published 2020).
Numbering of substitutions follows the chain as printed. Values joined by “and” are separate entries in the source; they are usually repeats but may differ in a detail not shown here. Equal values may be shown once. Read-outs that look alike come from different tables or passages of the source.

Key:
mouse PD-1 protein [1] = molecular target: T1, mouse PD-1 protein (mouse, UniProt Q02242 25-167); assay: HTRF binding, 2 nM mouse PD-1
T1 construct: Detected with anti human-Fc cryptate, so probably Fc tagged; also called mouse PD-1 (R&D Systems cat no. 1021-PD)
T1 sequence (looked up): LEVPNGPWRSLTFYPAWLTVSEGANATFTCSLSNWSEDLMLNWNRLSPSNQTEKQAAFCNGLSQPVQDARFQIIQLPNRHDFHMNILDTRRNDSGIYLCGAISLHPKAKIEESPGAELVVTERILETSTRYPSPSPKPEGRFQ
Procedure: (§1) e) Species Cross Reactivity Testing Purified […] were tested for their ability to bind to human PD-1 (R&D Systems cat no. 1086-PD), cynomolgus PD-1 (Acro Biosystems cat no. PD-1-05254) and mouse PD-1 (R&D Systems cat no. 1021-PD) in an HTRF Binding assay format. All reagents and serially diluted VH were prepared in assay buffer containing PBS, 0.1% BSA and 0.4M Potassium Fluoride. Samples or assay buffer (non-specific binding) were incubated with 2 nM human/cynomolgus or mouse PD-1, 1 nM Anti human-Fc Cryptate PAb (Cisbio cat. no. 61HFCKLB) and 30 nM anti His-D2 (CisBio cat no 61HISDLA) in black 384-shallow well assay plates for a minimum of 3 hours at room temperature. Time-resolved fluorescent emission at 620 nm and 665 nm was measured following excitation at 337 nm on the BMG PHERAstar plate reader. The HTRF ratio were calculated ((665 nm emission/620 nm emission)*10000) and the data corrected for (non-specific binding) to give the specific binding signal.

[2] = molecular target: T2, recombinant human PD-1 Fc chimera (human, UniProt Q15116 25-167); assay: HTRF inhibition; strep-tagged PD-L1 vs PD-1-Fc
T2 construct: Bought protein; also called human PD-1-huFc; huPD-1-Fc; not shown: human Fc
Procedure: All samples and reagents were prepared in HTRF assay buffer containing PBS, 0.1% (w/v) BSA and 0.4M Potassium Fluoride. […] Total binding controls containing periplasmic extract sample buffer and non-specific binding controls containing excess untagged competitor were set up on each plate for data normalisation. Time-resolved fluorescent emission at 620 nm and 665 nm was measured following excitation at 337 nm on the BMG PHERAstar plate reader. Data was expressed as a % of the total binding control (% control) after subtraction of the background signal determined from the non-specific binding control wells.

[3] = molecular target: T2, recombinant human PD-1 Fc chimera; assay: HTRF binding, 2 nM PD-1, anti-Fc cryptate and anti-His-D2
Procedure: as §1

[4] = molecular target: T3, cynomolgus PD-1 recombinant protein (cynomolgus, UniProt B0LAJ3 25-170); assay: as above
T3 construct: Detected with anti human-Fc cryptate, so probably Fc tagged; also called cyno PD-1; cynomolgus PD-1 (Acro Biosystems cat no. PD-1-05254); not shown: The vendor's carrier tag; It is probably a human Fc, since detection used anti human-Fc cryptate
Procedure: as §1

[5] = molecular target: T2, recombinant human PD-1 Fc chimera; assay: HTRF inhibition; biotinylated PD-L2-Fc vs Eu-cryptate PD-1-Fc
[6] = molecular target: T2, recombinant human PD-1 Fc chimera; assay: SPR Biacore T200, PD-1-huFc amine-coupled, single cycle kinetics
Procedure: Binding kinetics of certain VH single domain antibodies binding to human PD-1-huFc were measured by surface plasmon resonance (SPR) technology using Biacore T200 instrument (GE Healthcare). Recombinant human PD-1-huFc was immobilized by standard amine coupling to CM5 sensorschip (GE Healthcare) using in range of 0.1-0.01 mg/ml solution of antigen in 10 mM sodium acetate at pH 5.5. For the reference flow cell, a blank immobilisation was carried out. Single cycle kinetics assays were used to study the interaction, a five point, three-fold dilution series of each Humabody® was made with a top concentration of 30 nM. The binding kinetics were followed by flowing the Humabody® over the chip surface in HBS EP+ buffer at a flow rate of 30 μl/min. The contact time for each of the association steps was 180 seconds and the dissociation step was varied between 1200-3600 seconds. The data was fitted to a 1:1 binding model after double reference subtraction using the Biacore T200 Evaluation software.

[7] = molecular target: T4, human PD-1 expressed on cells (CHO human PD-1 cells) (human, UniProt Q15116 21-288); assay: FMAT inhibition assay on CHO human PD-1 cells; blocked ligand: human Fc tagged human PD-L1
T4 construct: also called CHO TREX human PD-1 cell line; CHO PD-1
Procedure: (§2) All reagents and serially diluted VH were prepared in FMAT assay buffer. […] Plates were incubated for 2 hours at room temperature then fluorescence measured in the FL2 (502 nm-537 nm) and FL5 (677-800 nm) channels on the Mirrorball plate reader (TTP) following excitation at 488 nm and 640 nm. Data was expressed as a % of the total binding control (i.e. % control) after subtraction of the background signal determined from the non-specific binding control wells.

[8] = molecular target: human PD-1 expressed on cells (CHO human PD-1 cells) (human) (UniProt Q15116); assay: cell-based or functional assay
[9] = molecular target: T4, human PD-1 expressed on cells (CHO …); assay: cell-based or functional assay
[10] = molecular target: T2, recombinant human PD-1 Fc chimera; assay: SPR Biacore T200, PD-1-Fc captured on protein G, single cycle kinetics
Procedure: Single cycle kinetics assays were used to study the interaction between human Fc tagged human PD-1 with Humabody® on a Biacore T200 instrument (GE Healthcare). Protein G was amine coupled to two flow cells of a CM-5 chip. Human Fc tagged recombinant human PD-1 was captured onto one of the flow cells. The other was used as the reference flow cell. A five point, three-fold dilution series of each Humabody® was made with a top concentration within the range of 50 to 150 nM. The binding kinetics were followed by flowing the Humabody® over the chip surface in HBS EP+ buffer at a flow rate of 30 μl/min. The contact time for each of the association steps was 180 seconds and the dissociation step was 3600 seconds. The data was fitted to a 1:1 binding model after double reference subtraction using the Biacore T200 Evaluation software.

[11] = molecular target: human PD-1 on primary human CD4+ T cells (human, UniProt Q15116 21-288); assay: flow cytometry on PHA-stimulated human CD4+ T cells (live cell gate)
Procedure: Binding of monovalent single domain antibodies and multivalent binding agents to T cells was measured using flow cytometry. […] T-cells were stimulated with 2.5 μg/ml PHA for 2-4 days in RPMI media supplemented with 10% FBS, 2 mM Glutamine, 1× Pen/Strep. Cells were transferred into 96 well plates (75000 per well), blocked for 10 mins with PBS/1% BSA, then incubated with serially diluted VH in staining buffer (PBS/1% BSA) for 1 hour at 4° C. Cells were washed with staining buffer by centrifugation then incubated with 10 μg/ml biotinylated Anti His antibody for 40 mins at 4° C. Cells were washed again then stained with Streptavidin Alexa Fluor-488 (10 μg/ml) and 1:5000 diluted Live Dead near IR stain (Molecular Probes cat no. L10119) for 30 mins at 4° C. After further washing cells were fixed and fluorescence measured by flow cytometry.

[12] = molecular target: human PD-1 expressed on cells (CHO human PD-1 cells) (human) (UniProt Q15116); assay: FMAT inhibition assay on CHO human PD-1 cells; blocked ligand: human Fc tagged human PD-L1
[13] = molecular target: human PD-1 expressed on cells (CHO human PD-1 cells) (human) (UniProt Q15116); assay: FMAT 1.57 epitope competition assay on CHO human PD-1 cells; competitor: 1.57-Strep tagged protein; 1 day in mouse serum
[14] = molecular target: human PD-1 expressed on cells (CHO human PD-1 cells) (human) (UniProt Q15116); assay: FMAT 1.57 epitope competition assay on CHO human PD-1 cells; competitor: 1.57-Strep tagged protein; 0 days in mouse serum
[15] = molecular target: human PD-1 expressed on cells (CHO human PD-1 cells) (human) (UniProt Q15116); assay: FMAT 1.57 epitope competition assay on CHO human PD-1 cells; competitor: 1.57-Strep tagged protein; 7 days in mouse serum
[16] = molecular target: T4, human PD-1 expressed on cells (CHO …); assay: FMAT 1.57 epitope competition assay on CHO human PD-1 cells; competitor: 1.57-Strep tagged protein; 1 day in mouse serum
Procedure: (§3) For the epitope competition assay reagents were prepared in FMAT assay buffer. […] Plates were incubated for a minimum of 1.5 hours at room temperature then fluorescence measured in the FL2 (502 nm-537 nm) and FL5 (677-800 nm) channels on the Mirrorball plate reader (TTP) following excitation at 488 nm and 640 nm. Data was expressed as a % of the total binding control (i.e. % control) after subtraction of the background signal determined from the non-specific binding control wells.
(§4) Serum stability of VH and multivalent VH constructs was assessed by measurement of their activity following incubation for 0, 1, 4 or 7 days in mouse serum (Sigma M5905).

[17] = molecular target: T4, human PD-1 expressed on cells (CHO …); assay: FMAT 1.57 epitope competition assay on CHO human PD-1 cells; competitor: 1.57-Strep tagged protein; 0 days in mouse serum
Procedure: as §3, §4

[18] = molecular target: T4, human PD-1 expressed on cells (CHO …); assay: FMAT 1.57 epitope competition assay on CHO human PD-1 cells; competitor: 1.57-Strep tagged protein; 4 days in mouse serum
Procedure: as §3, §4

[19] = molecular target: T4, human PD-1 expressed on cells (CHO …); assay: FMAT 1.57 epitope competition assay on CHO human PD-1 cells; competitor: 1.57-Strep tagged protein; 7 days in mouse serum
Procedure: as §3, §4

[20] = molecular target: T4, human PD-1 expressed on cells (CHO …); assay: FMAT inhibition assay on CHO human PD-1 cells; blocked ligand: human Fc tagged human PD-L1; a separate run from Figure 4 a)
Procedure: as §2

mouse PD-1 protein [21] = molecular target: T1, mouse PD-1 protein; assay: HTRF binding
[22] = molecular target: T4, human PD-1 expressed on cells (CHO …); assay: cell-based or functional assay; remark: listed apart in the source
[23] = molecular target: T4, human PD-1 expressed on cells (CHO …); assay: cell-based or functional assay; remark: listed apart in the source
[24] = molecular target: T5, Strep tagged recombinant human PD-1 (human, UniProt Q15116 25-170, limits assumed); assay: SPR Biacore T200, strep-tagged PD-1 amine-coupled, single cycle kinetics
T5 construct: the whole entry is named; also called strep tagged human PD-1; not shown: Strep tag
T5 sequence (Q15116 25-170 limits assumed): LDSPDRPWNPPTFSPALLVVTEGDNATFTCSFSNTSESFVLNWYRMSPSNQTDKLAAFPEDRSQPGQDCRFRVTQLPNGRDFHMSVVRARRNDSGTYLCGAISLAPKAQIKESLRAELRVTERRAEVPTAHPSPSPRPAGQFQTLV

T2 sequence (Q15116 25-167 limits assumed, change not shown): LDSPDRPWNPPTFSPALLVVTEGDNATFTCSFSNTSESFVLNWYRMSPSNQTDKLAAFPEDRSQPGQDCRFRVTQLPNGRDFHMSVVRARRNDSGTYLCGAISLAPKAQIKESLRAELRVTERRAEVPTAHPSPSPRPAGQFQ
T4 sequence (Q15116 21-288): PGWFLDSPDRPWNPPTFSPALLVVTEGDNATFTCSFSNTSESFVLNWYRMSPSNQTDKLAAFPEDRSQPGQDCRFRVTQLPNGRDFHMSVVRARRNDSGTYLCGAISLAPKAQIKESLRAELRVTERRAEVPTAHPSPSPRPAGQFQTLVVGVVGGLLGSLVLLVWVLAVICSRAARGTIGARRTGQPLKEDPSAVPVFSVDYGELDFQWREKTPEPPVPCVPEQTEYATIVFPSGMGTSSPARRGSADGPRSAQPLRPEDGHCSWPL
Chain of human PD-1 expressed on cells (CHO human PD-1 cells) (human) (Q15116 21-288): as above
T3 sequence (B0LAJ3 entry or part of it limits assumed): as the sequence (Q15116 25-170 limits assumed) above, with D2E, P10A, V19L, T35A, Q75R, T144A counted along it
Chain of human PD-1 on primary human CD4+ T cells (Q15116 21-288): as the sequence (Q15116 21-288) above

B1: Humabody® 1.1 (VHH)
VHH: QVQLVESGGGLVKPGGSLRLSCAASGFTFSDYTMTWMRQAPGKGLEWVSYISTGGTIKYYTDSVKGRFTISRDNAKNSLYLQMNSLRADDTAVYYCAREAPLRLGESPHDAFDIWGQGTMVTVSS
notes: human VH single domain antibody; also called VH single domain antibody 1.1; clone 1.1
- binding result (mouse PD-1 protein [1]): no binding
- IC50 [2]: 1.27 nM
- EC50 [3]: 4 nM
- EC50 [4]: 6.3 nM
- IC50 [5]: 4.9 nM
- Kd [6]: 0.676 nM
- koff [6]: 7.35e-05 s⁻¹
- kon [6]: 109000 M⁻¹ s⁻¹
- IC50 (read off the curve) [7]: ~20 nM

B2: Humabody® 1.57 (VHH)
VHH: B1 VHH with Y32N, T33S, T53S, T56G, I57V, K58I, Y59F, T61A, W115S
notes: human VH single domain antibody
- EC50 (M), human PD-1 reporter gene assay [8]: 1e-08 M
- EC50 (M), reporter assay [8]: 1e-08 M
- Reporter Assay EC50 [9]: 8.6 nM
- binding result (mouse PD-1 protein [1]): no binding
- EC50 [3]: 0.59 nM
- EC50 [4]: 0.75 nM
- Kd [10]: 0.0586 nM and 0.0533 nM
- koff [10]: 1.99e-05 s⁻¹ and 2.32e-05 s⁻¹
- kon [10]: 340000 M⁻¹ s⁻¹ and 435000 M⁻¹ s⁻¹
- EC50 (read off the curve) [11]: 1 nM
- EC50 (read off the curve) ([11]; record 2): ~0.2 nM
- IC50 (read off the curve) [12]: 6 nM
- IC50 (read off the curve) [13]: 1 nM
- IC50 (read off the curve) [14]: 2 nM
- IC50 (read off the curve) [15]: 3 nM
- IC50 (read off the curve) [16]: ~0.7 nM
- IC50 (read off the curve) [17]: ~0.4 nM
- IC50 (read off the curve) [18]: ~1 nM
- IC50 (read off the curve) [19]: ~2 nM
- IC50 (read off the curve) [20]: ~4 nM

B3: 1.57-4GS-1.57 (other)
chain: QVQLVESGGGLVKPGGSLRLSCAASGFTFSDNSMTWMRQAPGKGLEWVSYISSGGGVIFYADSVKGRFTISRDNAKNSLYLQMNSLRADDTAVYYCAREAPLRLGESPHDAFDISGQGTMVTVSSGGGGSGGGGSGGGGSGGGGSQVQLVESGGGLVKPGGSLRLSCAASGFTFSDNSMTWMRQAPGKGLEWVSYISSGGGVIFYADSVKGRFTISRDNAKNSLYLQMNSLRADDTAVYYCAREAPLRLGESPHDAFDISGQGTMVTVSS
notes: bivalent construct of two VH domains in one chain
- binding result (mouse PD-1 protein [21]): no binding
- EC50 (M), reporter assay [22]: 1e-09 M
- EC50 (M), human PD-1 reporter gene assay [23]: 1e-09 M
- Kd [24]: 0.0173 nM
- koff [24]: 1.54e-05 s⁻¹
- kon [24]: 888000 M⁻¹ s⁻¹
